From patent publication US20250206836A1 (ONA THERAPEUTICS S L, published 2025)

B1: 31G04 (antibody, human IgG1, V domains shown)
VH: QVQLQQSGSELRSPGSSVKLSCKDFDSEVFPIAYMSWVRQKPGHGFEWIGDILPSIGSTIYGEKFEDKATLDADTVSNTAYLELNSLTSEDSAIYYCARDYYGSSYGYFDVWGAGTTVTVPS
VL: DIVLTQSPASLAVSLGQRATISCRASESVDSYGNSFMHWYQQKPGQPPKLLIYRASNLESGIPARFSGSGSRTDFTLTINPVEADDVATYYCQQSNEDPYTFGGGTKLEIK
notes: Chimeric: mouse variable regions on human IgG1 LALA (L234A/L235A)
B2: 26G04 (antibody, human IgG1, V domains shown)
VH: QVQMKESGAELMKPGASVKISCKATGYIFSNYWIEWLKERPGHGLEWIGDFLPGSSSANYNEKFKGKATFTADTSSNTAYMQLSSLTSEDSAVYYCVPFTVEVTDAMDYWGQGTSVTVSS
VL: DIVLTQSHKFMSTSVGDRVSITCKASQDVSTAVAWYQQKPGQSPKLLIYSASYRYTGVPDRFTGSGSGTDFTFTISSVQAEDLAVYYCQQHYSTPRTFGGGTKLEIK
notes: as for B1
B3: 1G03 (antibody, V domains shown)
VH: QVQLKQSGADLVRPGASVKLSCKASGYTFTDYYINWVKQRPGQGLEWIARIYPGSGNTYYNEKFKGKATLTAEKSSSTAYMQLSSLTSEDSAVYFCARGIGGGFGMDYWGQGTSVTVSS
VL: SIVMTQTPKFLLVSAGDRITITCKASQSVSDDVAWYQQKPGQSPKLLIYYASNRYTGVPDRFTGSGYGTDFTFTISTVQAEDLAVYFCQQDYSSPLTFGAGTKLEIK
B4: 1G04 (antibody, human IgG1, kappa, L234A L235A)
heavy: not shown
light: SIVMTQTPKFLLVSAGDRITITCKASQSVSDDVAWYQQKPGQSPKLLIYYASNRYTGVPDRFTGSGYGTDFTFTISTVQAEDLAVYFCQQDYSSPLTFGAGTKLEIKRTVAAPSVFIFPPSDEQLKSGTASVVCLLNNFYPREAKVQWKVDNALQSGNSQESVTEQDSKDSTYSLSSTLTLSKADYEKHKVYACEVTHQGLSSPVTKSFNRGEC
notes: Chimeric human IgG1 with L234A/L235A (LALA); variable region of ONA-0-v1; also called 01G04; 001G04; copies: 2 + 2
B5: 1G06 (antibody, human IgG1, kappa)
heavy: QVQLKQSGADLVRPGASVKLSCKASGYTFTDYYINWVKQRPGQGLEWIARIYPGSGNTYYNEKFKGKATLTAEKSSSTAYMQLSSLTSEDSAVYFCARGIGGGFGMDYWGQGTSVTVSSASTKGPSVFPLAPSSKSTSGGTAALGCLVKDYFPEPVTVSWNSGALTSGVHTFPAVLQSSGLYSLSSVVTVPSSSLGTQTYICNVNHKPSNTKVDKKVEPKSCDKTHTCPPCPAPESTRGPSVFLFPPKPKDTLMISRTPEVTCVVVDVSHEDPEVKFNWYVDGVEVHNAKTKPREEQYNSTYRVVSVLTVLHQDWLNGKEYKCKVSNKALPAPIEKTISKAKGQPREPQVYTLPPSRDELTKNQVSLTCLVKGFYPSDIAVEWESNGQPENNYKTTPPVLDSDGSFFLYSKLTVDKSRWQQGNVFSCSVMHEALHNHYTQKSLSLSPGK
light: SIVMTQTPKFLLVSAGDRITITCKASQSVSDDVAWYQQKPGQSPKLLIYYASNRYTGVPDRFTGSGYGTDFTFTISTVQAEDLAVYFCQQDYSSPLTFGAGTKLEIKRTVAAPSVFIFPPSDEQLKSGTASVVCLLNNFYPREAKVQWKVDNALQSGNSQESVTEQDSKDSTYSLSSTLTLSKADYEKHKVYACEVTHQGLSSPVTKSFNRGEC
notes: Variable regions of 1G04 on human IgG1 with L234S, L235T, G236R (STR); also called STR; copies: 2 + 2

Assays:
[1] = target: T1, nonhuman primate CD36 (on HEK 293 cells) (cynomolgus monkey / rhesus macaque, UniProt P16671 2-472 (human entry)); assay: FACS, HEK 293 cells transiently overexpressing CD36;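 for EC50: antibody binding to transfected cells detected by flow cytometry with a fluorescent anti-human secondary antibody, EC50 from a four-parameter sigmoidal fit of mean fluorescence intensity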
T1 construct: also called non-human primate CD36 (cynomolgus)
Method: (§1) After transiently transfecting the HEK 293 cells with a CD36 expression construct, cells were treated with three-fold serial dilution of each candidate antibody (10 dilutions starting at 500 nM). […] After incubation with the cells, an anti-human fluorescently labelled antibody was added to the cell media, allowed to incubate further, and the unbound antibody was washed off of the cells. Subsequently, the cells were subjected to FACS analysis to determine antibody binding to the cells. The results were fitted to a sigmoidal titration curve. Using a nonlinear regression model, the EC₅₀ values for each antibody were calculated from the GeoMFI and MFI values using the log(agonist) versus response (four parameters) fitting on the data transformed according to X=Log[X] in GraphPad PRISM.

[2] = target: T2, purified biotin-tagged human CD36 (human, UniProt P16671 30-439, limits assumed, biotin tag, site not stated); assay: AlphaScreen competition; competitor FA6-152 on acceptor beads
[3] = target: T2, purified biotin-tagged human CD36; assay: AlphaScreen competition; competitor 1G04 on acceptor beads;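 note: streptavidin donor beads excited at 680 nm release singlet oxygen, and the light signal needs a nearby acceptor bead, with 30 min donor-bead incubation at 25 °C in the dark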
Method: This was done using the AlphaScreen® bead-based microplate assay. […] AlphaLISA® Streptavidin Donor Beads were then added and the mix incubated for 30 min at 25° C. in the dark. The donor bead contains a photosensitizer, which upon excitation by light at 680 nm, converts oxygen (O₂) into an excited form, singlet oxygen. Singlet oxygen molecules have a reduced lifetime (4 microseconds half-life) and can diffuse approximately 200 nm in solution before falling back to ground state. In the absence of acceptor beads, the singlet oxygen molecules fall back to ground state without producing any light signal.

[4] = target: T3, human CD36 (on HEK 293 or SCC25 cells) (human, UniProt P16671 2-472); assay: FACS, HEK 293 cells transiently overexpressing CD36;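 note: antibody binding to transfected cells detected by flow cytometry with a fluorescent anti-human secondary antibody, EC50 from a four-parameter sigmoidal fit of mean fluorescence intensity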
T3 construct: Overexpressed transiently or stably on HEK 293 cells, or stably on SCC25 cells; also called huCD36
Method: as §1

[5] = target: T4, mouse CD36 (on HEK 293 cells) (mouse, UniProt Q08857 1-472); assay: as above
T4 construct: also called Murine CD36
Method: as §1

[6] = target: T5, human CD36 (Sino Biological) (human, UniProt P16671 30-439); assay: ELISA, plates coated with human CD36 (Sino Biological), antibody titrated, OD630nm
T5 construct: Bought protein coated on ELISA plates
From the text: Binding was first tested using an ELISA assay in which 96-well ELISA plates were coated with human CD36 (Sino Biological) or mouse CD36 protein.

[7] = target: T3, human CD36 (on HEK 293 or SCC25 cells); assay: FACS, SCC25 cells stably expressing human CD36
Method: SCC25 cells were treated with 10-fold serial dilution of each antibody (5 dilutions starting at 100 nM). After incubation with the cells, an anti-human fluorescently labelled antibody was added to the cell media, allowed to incubate further, and the unbound antibody was washed off of the cells. Subsequently, the cells were subjected to FACS analysis to determine antibody binding to the cells. The results were fitted to a sigmoidal titration curve. Using a nonlinear regression model, the EC₅₀ values for each antibody were calculated from the GeoMFI and MFI values using the log(agonist) versus response (four parameters) fitting on the data transformed according to X=Log[X] in GraphPad PRISM.

[8] = target: T3, human CD36 (on HEK 293 or SCC25 cells); assay: cell-based or functional assay
[9] = target: T3, human CD36 (on HEK 293 or SCC25 cells); assay: cell-based or functional assay; remark: listed apart in the source
[10] = target: T3, human CD36 (on HEK 293 or SCC25 cells); assay: cell-based or functional assay; remark: listed apart in the source
[11] = target: T1, nonhuman primate CD36 (on HEK 293 cells); assay: FACS, HEK 293 cells transiently overexpressing CD36; remark: listed apart in the source;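 for EC50: antibody binding to transfected cells detected by flow cytometry with a fluorescent anti-human secondary antibody, EC50 from a four-parameter sigmoidal fit of mean fluorescence intensity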
Method: as §1

human CD36 (His-tagged) = target: T6, human CD36 (His-tagged) (human, UniProt P16671 30-439); assay: SPR (Biacore T200), His-captured CD36, bivalent analyte model
T6 construct: not shown: His tag

C1q human protein = target: T7, C1q human protein (human, UniProt P02745 23-245; P02746 28-253; P02747 29-245); assay: ELISA, plates coated with the antibody, C1q human protein titrated, Mean Absorbance (OD Units)
T7 construct: also called complement C1q protein
Method: Binding to complement C1q protein was also measured, using a standard ELISA assay in which 96-well ELISA plates were coated with the tested antibodies and C1q human protein was added (2.5-fold serial dilution starting at 250 g/mL).

human FcRn = human FcRn (human, UniProt P55899 24-297; P61769 21-119); assay: SPR at pH 5.8, antibody immobilized through its light chains, soluble human FcRn
Method: (§2) The binding of the different Fc-formatted anti-CD36 antibodies to FcγRs and FcRn was measured by SPR by immobilizing the antibodies through their light chains. The setup for these assays orients the antibody such that the Fc domain is solvent-exposed, allowing quantification of the interaction with soluble receptor proteins. Antibodies with well-defined binding properties were included as positive/negative controls in all the assays.

[12] = target: T3, human CD36 (on HEK 293 or SCC25 cells); assay: FACS, SCC25 cells stably overexpressing human CD36
Cyno FcγRIIa = target: T8, Cyno FcγRIIa (Macaca fascicularis, UniProt A0A140HDN0); assay: SPR, antibody immobilized through its light chains, soluble receptor injected; Mean Relative Response (RU)
T8 construct: soluble receptor protein; bar 8 of each group
T8 sequence (receptor): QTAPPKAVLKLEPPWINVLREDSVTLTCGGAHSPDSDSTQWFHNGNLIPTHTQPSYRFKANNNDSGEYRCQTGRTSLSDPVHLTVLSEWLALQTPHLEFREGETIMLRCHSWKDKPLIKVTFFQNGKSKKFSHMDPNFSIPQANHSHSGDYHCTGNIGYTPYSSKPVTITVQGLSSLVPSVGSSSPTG
Method: as §2

Human FcγRI = target: T9, Human FcγRI (human, UniProt P12314); assay: as above
T9 construct: soluble receptor protein; bar 10 of each group
Method: as §2

Human FcγRIIIa (158F) = target: T10, Human FcγRIIIa (158F) (human, UniProt P08637); assay: as above
T10 construct: soluble receptor protein; bar 1 of each group
Method: as §2

Human FcγRIIb = target: T11, Human FcγRIIb (human, UniProt P31994); assay: as above
T11 construct: soluble receptor protein; bar 7 of each group
T11 sequence (receptor, looked up): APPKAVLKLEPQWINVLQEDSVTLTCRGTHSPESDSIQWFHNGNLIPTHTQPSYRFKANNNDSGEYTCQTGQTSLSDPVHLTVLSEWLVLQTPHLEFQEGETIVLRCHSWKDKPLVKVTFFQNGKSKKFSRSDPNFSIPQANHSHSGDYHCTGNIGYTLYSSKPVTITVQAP
Method: as §2

Human FcγRIIIa (158V) = target: T12, Human FcγRIIIa (158V) (human, UniProt P08637); assay: as above
T12 construct: soluble receptor protein; bar 2 of each group
Method: as §2

Cyno FcγRIII = target: T13, Cyno FcγRIII (cynomolgus monkey, UniProt Q8SPW2); assay: as above
T13 construct: soluble receptor protein; bar 4 of each group
Method: as §2

Human FcγRIIIb = target: T14, Human FcγRIIIb (human, UniProt O75015); assay: as above
T14 construct: soluble receptor protein; bar 3 of each group
Method: as §2

Human FcγRIIa (131H) = target: T15, Human FcγRIIa (131H) (human, UniProt P12318); assay: as above
T15 construct: soluble receptor protein; bar 5 of each group
T15 sequence (receptor, looked up): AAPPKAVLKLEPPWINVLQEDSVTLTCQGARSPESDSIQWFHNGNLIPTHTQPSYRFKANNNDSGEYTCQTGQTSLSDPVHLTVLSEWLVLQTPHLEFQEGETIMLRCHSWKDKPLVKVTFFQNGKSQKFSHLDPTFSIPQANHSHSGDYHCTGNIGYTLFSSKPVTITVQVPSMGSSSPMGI
Method: as §2

Human FcγRIIa (131R) = target: T16, Human FcγRIIa (131R) (human, UniProt P12318); assay: as above
T16 construct: soluble receptor protein; bar 6 of each group
T16 sequence (receptor, looked up): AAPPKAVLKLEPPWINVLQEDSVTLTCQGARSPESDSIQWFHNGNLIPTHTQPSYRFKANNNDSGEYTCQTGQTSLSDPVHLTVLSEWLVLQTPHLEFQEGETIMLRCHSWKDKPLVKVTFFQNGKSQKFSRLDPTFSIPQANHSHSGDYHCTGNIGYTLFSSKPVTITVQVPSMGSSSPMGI
Method: as §2

Cyno FcγRIIb = target: T17, Cyno FcγRIIb (Macaca fascicularis, UniProt A0A140HDP4); assay: as above
T17 construct: soluble receptor protein; bar 9 of each group
T17 sequence (receptor): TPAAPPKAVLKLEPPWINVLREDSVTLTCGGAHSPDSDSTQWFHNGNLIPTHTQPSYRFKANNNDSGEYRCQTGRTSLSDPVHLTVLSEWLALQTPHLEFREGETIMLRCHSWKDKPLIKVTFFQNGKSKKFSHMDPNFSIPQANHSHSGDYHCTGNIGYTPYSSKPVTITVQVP
Method: as §2
Throughout, for Percent Fatty Acid Uptake Inhibition: test concentration or dose not given here.

T1 sequence (P16671 other isoform, or with tags, fused parts or gaps limits assumed): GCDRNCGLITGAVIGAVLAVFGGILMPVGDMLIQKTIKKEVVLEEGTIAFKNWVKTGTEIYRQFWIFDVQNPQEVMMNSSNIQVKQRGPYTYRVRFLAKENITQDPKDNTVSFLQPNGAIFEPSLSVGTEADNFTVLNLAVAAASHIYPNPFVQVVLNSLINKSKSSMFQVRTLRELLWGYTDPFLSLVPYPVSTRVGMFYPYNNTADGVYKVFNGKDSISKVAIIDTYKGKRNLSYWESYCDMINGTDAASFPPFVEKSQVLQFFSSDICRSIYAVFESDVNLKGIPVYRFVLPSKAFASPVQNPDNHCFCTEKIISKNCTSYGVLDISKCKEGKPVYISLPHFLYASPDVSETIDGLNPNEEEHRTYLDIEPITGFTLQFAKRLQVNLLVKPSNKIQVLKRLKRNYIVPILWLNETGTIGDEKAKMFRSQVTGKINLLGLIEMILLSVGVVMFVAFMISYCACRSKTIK
T6 sequence (P16671 30-439 limits assumed): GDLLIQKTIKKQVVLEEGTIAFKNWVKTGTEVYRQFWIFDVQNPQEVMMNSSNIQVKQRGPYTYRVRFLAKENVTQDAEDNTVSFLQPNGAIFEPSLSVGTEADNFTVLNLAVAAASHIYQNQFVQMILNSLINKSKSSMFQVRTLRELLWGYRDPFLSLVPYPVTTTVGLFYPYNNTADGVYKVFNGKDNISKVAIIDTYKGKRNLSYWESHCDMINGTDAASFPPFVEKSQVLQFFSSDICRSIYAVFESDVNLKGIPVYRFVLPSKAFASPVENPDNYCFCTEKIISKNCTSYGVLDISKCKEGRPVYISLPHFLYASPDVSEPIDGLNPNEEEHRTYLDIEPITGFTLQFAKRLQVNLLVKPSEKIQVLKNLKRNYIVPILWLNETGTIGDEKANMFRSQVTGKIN
T5 sequence (P16671 30-439 limits assumed): as above
T2 sequence (P16671 30-439 limits assumed): as above
T3 sequence (P16671 2-472 limits assumed): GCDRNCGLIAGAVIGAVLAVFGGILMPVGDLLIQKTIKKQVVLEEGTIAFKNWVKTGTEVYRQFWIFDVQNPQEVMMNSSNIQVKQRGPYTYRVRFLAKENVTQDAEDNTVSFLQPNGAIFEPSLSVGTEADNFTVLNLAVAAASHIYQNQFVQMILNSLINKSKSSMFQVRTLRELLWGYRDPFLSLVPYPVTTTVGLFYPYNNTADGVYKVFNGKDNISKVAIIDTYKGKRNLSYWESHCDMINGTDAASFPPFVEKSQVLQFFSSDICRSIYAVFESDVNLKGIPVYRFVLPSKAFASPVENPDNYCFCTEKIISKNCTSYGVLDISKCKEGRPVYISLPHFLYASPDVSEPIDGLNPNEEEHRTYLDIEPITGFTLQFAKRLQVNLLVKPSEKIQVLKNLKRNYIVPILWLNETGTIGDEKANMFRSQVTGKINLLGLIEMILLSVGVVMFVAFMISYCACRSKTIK
T4 sequence (Q08857 whole entry): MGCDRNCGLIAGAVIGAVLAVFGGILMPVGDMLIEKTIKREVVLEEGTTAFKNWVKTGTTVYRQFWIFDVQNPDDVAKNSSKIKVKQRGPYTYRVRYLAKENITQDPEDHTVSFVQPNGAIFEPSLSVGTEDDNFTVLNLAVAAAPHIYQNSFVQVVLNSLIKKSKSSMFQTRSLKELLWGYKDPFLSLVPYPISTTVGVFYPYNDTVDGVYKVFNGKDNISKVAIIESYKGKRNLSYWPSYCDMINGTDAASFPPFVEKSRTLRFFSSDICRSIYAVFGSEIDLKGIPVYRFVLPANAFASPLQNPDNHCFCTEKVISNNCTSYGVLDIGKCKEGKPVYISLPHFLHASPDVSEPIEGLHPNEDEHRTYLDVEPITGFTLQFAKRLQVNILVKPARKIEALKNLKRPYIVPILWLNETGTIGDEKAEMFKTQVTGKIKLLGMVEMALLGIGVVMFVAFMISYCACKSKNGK
Chain of human FcRn (P55899 24-297 limits assumed, chain 1 of 2): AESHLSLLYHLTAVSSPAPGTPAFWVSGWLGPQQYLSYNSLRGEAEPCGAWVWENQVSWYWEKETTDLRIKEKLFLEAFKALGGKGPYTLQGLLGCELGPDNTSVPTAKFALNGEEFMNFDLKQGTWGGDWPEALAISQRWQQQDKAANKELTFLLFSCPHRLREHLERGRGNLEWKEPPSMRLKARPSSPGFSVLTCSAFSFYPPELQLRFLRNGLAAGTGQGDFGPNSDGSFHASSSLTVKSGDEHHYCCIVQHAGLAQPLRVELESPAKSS
Chain of human FcRn (P61769 21-119 limits assumed, chain 2 of 2): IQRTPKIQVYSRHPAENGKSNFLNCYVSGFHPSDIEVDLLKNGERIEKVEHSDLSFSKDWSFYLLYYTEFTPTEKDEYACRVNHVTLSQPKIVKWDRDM
T9 sequence (P12314 16-288 limits assumed): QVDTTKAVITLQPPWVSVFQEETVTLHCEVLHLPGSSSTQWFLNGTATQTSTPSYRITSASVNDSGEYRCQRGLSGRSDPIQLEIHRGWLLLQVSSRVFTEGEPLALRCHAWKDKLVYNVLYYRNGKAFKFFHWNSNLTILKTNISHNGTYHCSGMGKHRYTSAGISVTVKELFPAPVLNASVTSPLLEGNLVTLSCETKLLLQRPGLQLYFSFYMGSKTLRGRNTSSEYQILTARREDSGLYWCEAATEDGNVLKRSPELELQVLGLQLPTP
T7 sequence (P02745 23-245 limits assumed, chain 1 of 3): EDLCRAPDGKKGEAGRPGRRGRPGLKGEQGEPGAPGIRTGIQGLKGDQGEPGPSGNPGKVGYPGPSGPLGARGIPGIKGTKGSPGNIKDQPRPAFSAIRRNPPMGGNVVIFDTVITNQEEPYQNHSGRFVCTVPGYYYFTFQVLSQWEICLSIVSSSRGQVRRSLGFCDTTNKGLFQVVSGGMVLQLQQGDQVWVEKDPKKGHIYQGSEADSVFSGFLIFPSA
T7 sequence (P02746 28-253 limits assumed, chain 2 of 3): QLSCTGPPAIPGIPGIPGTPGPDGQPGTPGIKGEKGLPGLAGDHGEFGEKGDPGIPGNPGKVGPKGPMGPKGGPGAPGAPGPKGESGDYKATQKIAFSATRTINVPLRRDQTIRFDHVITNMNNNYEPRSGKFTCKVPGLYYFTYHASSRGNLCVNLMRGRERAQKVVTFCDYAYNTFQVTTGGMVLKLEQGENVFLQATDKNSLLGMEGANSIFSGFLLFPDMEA
T7 sequence (P02747 29-245 limits assumed, chain 3 of 3): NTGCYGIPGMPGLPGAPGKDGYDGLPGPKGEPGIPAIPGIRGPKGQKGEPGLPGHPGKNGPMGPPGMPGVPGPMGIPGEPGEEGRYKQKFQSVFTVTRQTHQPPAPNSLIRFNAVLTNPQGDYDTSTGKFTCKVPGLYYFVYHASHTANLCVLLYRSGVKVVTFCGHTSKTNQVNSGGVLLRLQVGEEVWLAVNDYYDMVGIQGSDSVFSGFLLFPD
T14 sequence (O75015 17-200 limits assumed): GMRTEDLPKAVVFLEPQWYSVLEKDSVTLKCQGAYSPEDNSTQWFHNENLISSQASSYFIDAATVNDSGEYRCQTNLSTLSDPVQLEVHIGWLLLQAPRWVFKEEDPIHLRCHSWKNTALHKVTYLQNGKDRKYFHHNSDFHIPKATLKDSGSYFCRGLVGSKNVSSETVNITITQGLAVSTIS
T12 sequence (P08637 17-208 F176V limits assumed): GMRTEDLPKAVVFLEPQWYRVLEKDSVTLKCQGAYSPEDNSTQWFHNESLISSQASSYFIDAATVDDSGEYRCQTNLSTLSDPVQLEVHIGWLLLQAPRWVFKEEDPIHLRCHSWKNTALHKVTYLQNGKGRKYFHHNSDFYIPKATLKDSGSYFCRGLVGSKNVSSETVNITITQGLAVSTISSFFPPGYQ
T10 sequence (P08637 17-208 limits assumed): as the sequence (P08637 17-208 F176V limits assumed) above, with V160F counted along it
T13 sequence (Q8SPW2 17-208 limits assumed): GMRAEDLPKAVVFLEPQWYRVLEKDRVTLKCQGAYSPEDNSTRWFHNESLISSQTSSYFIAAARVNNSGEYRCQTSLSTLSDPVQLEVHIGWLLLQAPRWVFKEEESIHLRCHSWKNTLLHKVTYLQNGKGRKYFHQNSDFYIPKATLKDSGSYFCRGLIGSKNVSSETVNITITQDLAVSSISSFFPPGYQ

Binder | binding result [1] | EC50 [2] [nM] | EC50 [3] [nM] | EC50 [4] [nM] | EC50 [5] [nM] | EC50 (read off the curve) [6] [nM] | EC50 [7] [nM] | binding result (C1q human protein) | Kd (human FcRn) [nM] | binding result (Cyno FcγRIIa) | binding result (Human FcγRI) | binding result (Human FcγRIIIa (158F)) | binding result (Human FcγRIIb) | binding result (Human FcγRIIIa (158V)) | binding result (Cyno FcγRIII) | binding result (Human FcγRIIIb) | binding result (Human FcγRIIa (131H)) | binding result (Human FcγRIIa (131R)) | further results
B1 | no binding (tested: 500 nM top concentration) | 2.5 | 0.27 | – | – | – | – | – | – | – | – | – | – | – | – | – | – | – | –
B2 | no binding (tested: 500 nM top concentration) | 2.66 | 0.46 | 0.72 | 158 | – | – | – | – | – | – | – | – | – | – | – | – | – | –
B3 | – | – | – | – | – | ~0.1 | 0.38 | – | – | – | – | – | – | – | – | – | – | – | –
B4 | – | – | – | 2.07 | 1.99 | ~0.1 | 0.42 | no binding (tested: 250 µg/mL C1q (highest point)) | 676 | no binding | binds | binds | binds | binds | binds | binds | binds | binds | IC50 of fatty acid uptake inhibition (BODIPY FL C16, HEK hCD36 cells) [8]: 1 nM; IC50 of oxLDL uptake inhibition (DiI-oxLDL, SCC25 cells) [9]: 0.36 nM; Percent Fatty Acid Uptake Inhibition [10]: 30.5%; EC50 [11]: 1.23 nM; Kd (human CD36 (His-tagged)): 3.2 nM; koff (human CD36 (His-tagged)): 0.0094 s⁻¹; kon (human CD36 (His-tagged)): 2.9e+06 M⁻¹ s⁻¹; EC50 [12]: 0.34 nM
B5 | – | – | – | – | – | ~0.1 | 0.38 | no binding (tested: 250 µg/mL C1q (highest point)) | 629 | no binding | no binding | binds | no binding | binds | no binding | binds | no binding | no binding | binding result (Cyno FcγRIIb): no binding
